B1: CTLA4/CD28Ig hybrid fusion protein HS6 (Fc fusion, not shown: a dimerising Fc or GST)
chain: MHVAQPAVVLASSRGIASFVCEYSYNLFSREVRVTVLRQADSQVTEVCAATYMMGNELTFLDDSICTGTSSGNQVNLTIQGLRAMDTGLYICKVELMYPPPYYLGIGNGTQIYVIDPEPCPDSD
notes: mature numbering, not counted on the entries
B2: CTLA4/CD28Ig hybrid fusion protein HS4-A (Fc fusion, not shown: a dimerising Fc or GST)
chain: NKILVKQSPMLVAYDNAYNLSCKYSYNLFSREFRASLHKGLDSAVEVCVVYGNYSQQLQVYSKTGFNCDGKLGNESVTFYLQNLYVNQTDIYFCKIELMYPPPYYLGIGNGTQIHVKGKHLCPS
notes: as for B1
B3: CTLA4/CD28Ig hybrid fusion protein HS2 (Fc fusion, not shown: a dimerising Fc or GST)
chain: MHVAQPAVVLASSRGIASFVCKYSYNLFSREFRASLHKGLDSAVEVCVVYGNYSQQLQVYSKTGFNCDGKLGNESVTFYLQNLYVNQTDIYFCKIELMYPPPYYLGIGNGTQIYVIDPEPCPDSD
notes: as for B1
B4: CTLA4/CD28Ig hybrid fusion protein HS4 (Fc fusion, not shown: a dimerising Fc or GST)
chain: NKILVKQSPMLVAYDNAYNLSCKYSYNLFSREFRASLHKGLDSAVEVCVVYGNYSQQLQVYSKTGFNCDGKLGNESVTFYLQNLYVNQTDIYFCKIELMYPPPYYLGIGNGTQIYVIDPEPCPDSD
notes: as for B1
B5: B7 antigen (B7-1, CD80) expressed on cells (ligand, human, UniProt P33681 35-288, looked up)
chain: VIHVTKEVKEVATLSCGHNVSVEELAQTRIYWQKEKKMVLTMMSGDMNIWPEYKNRTIFDITNNLSIVILALRPSDEGTYECVVLKYEKDAFKREHLAEVTLSVKADFPTPSISDFEIPTSNIRRIICSTSGGFPEPHLSWLENGEELNAINTTVSQDPETELYAVSSKLDFNMTTNHSFMCLIKYGHLRVNQTFNWNTTKQEHFPDNLLPSWAITLISVNGIFVICCLTYCFAPRCRERRRNERLRRESVRPV
notes: whole, on cells; Stably transfected CHO cells; in the MLR and IgM assays the B7 antigen of the stimulating B cells; also called B7^+ CHO cells; B7-1 positive CHO cells
B6: CTLA4/CD28Ig hybrid fusion protein HS1 (Fc fusion, not shown: a dimerising Fc or GST)
chain: NKILVKQSPMLVAYDNAYNLSCKYASPGKATEVRVTVLRQADSQVTEVCAATYMMGNELTFLDDSICTGTSSGNQVNLTIQGLRAMDTGLYICKVEVMYPPPYLDNEKSNGTIIHVKGKHLCPS
notes: as for B1
B7: CD7 expressed on transfected COS cells (receptor, UniProt P09564 26-240, looked up)
chain: AQEVQQSPHCTTVPVGASVNITCSTSGGLRGIYLRQLGPQPQDIIYYEDGVVPTTDRRFRGRIDFSGSQDNLTITMHRLQLSDTGTYTCQAITEVNVYGSGTLVLVTEEQSQGWHRCSDAPPRASALPAPPTGSALPDPQTASALPDPPAASALPAALAVISFLLGLGLGVACVLARTQIKKLCSWRDKNSAACVVYEDMSHSRCNTLSSPNQYQ
notes: whole, on cells; Control transfectant; also called CD7-transfected COS cells
B8: CTLA4/CD28Ig hybrid fusion protein HS3 (Fc fusion, not shown: a dimerising Fc or GST)
chain: MHVAQPAVVLASSRGIASFVCEYASPGKATEVRVTVLRQADSQVTEVCAATYMMGNELTFLDDSICTGTSSGNQVNLTIQGLRAMDTGLYICKVEVMYPPPYLDNEKSNGTIIHVKGKHLCPS
notes: as for B1

Tests used:
[1] = target: B5; assay: B7-1+ CHO cell enzyme immunoassay; binding activity relative to CTLA4Ig, from the concentrations giving the same A450
[2] = target: B5; assay: enzyme immunoassay on fixed B7-1+ CHO cells
CD5Ig [3] = target: T1, CD5Ig (human, UniProt P06127 25-371; P01857 99-330 = IgG part); assay: indirect immunofluorescence, FACS, FITC goat anti-human Ig second step
T1 construct: range 1-347;domain: hinge, CH2 and CH3 regions; Control fusion protein; also called control CD5Ig fusion protein
T1 sequence (P06127 other isoform, or with tags, fused parts or gaps limits assumed): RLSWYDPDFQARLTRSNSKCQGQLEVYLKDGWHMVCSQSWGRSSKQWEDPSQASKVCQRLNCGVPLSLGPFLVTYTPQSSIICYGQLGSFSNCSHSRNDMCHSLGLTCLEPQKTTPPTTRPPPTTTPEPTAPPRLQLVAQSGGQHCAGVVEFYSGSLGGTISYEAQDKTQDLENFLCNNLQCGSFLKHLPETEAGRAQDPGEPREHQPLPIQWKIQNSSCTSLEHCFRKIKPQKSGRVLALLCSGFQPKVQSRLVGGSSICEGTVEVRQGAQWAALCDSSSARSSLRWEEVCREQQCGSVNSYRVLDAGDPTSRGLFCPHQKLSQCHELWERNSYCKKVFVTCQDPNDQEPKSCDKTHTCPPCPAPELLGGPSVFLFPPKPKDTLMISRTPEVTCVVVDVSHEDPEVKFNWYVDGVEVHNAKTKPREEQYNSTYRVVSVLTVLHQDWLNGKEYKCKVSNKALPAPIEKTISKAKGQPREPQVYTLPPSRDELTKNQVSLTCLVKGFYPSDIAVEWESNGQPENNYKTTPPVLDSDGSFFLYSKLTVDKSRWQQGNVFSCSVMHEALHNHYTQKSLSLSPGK
Method: Prior to staining, COS or CHO cells were removed from their culture vessels by incubation in PBS containing 10 mM EDTA. Cells were first incubated with mAbs or Ig fusion proteins at 10 micro grams/ml in DMEM containing 10% FBS for 1–2 hr at 4 degrees C. Cells were then washed, and incubated for an additional 0.5–2 hrs at 4 degrees C. with FITC-conjugated goat anti-mouse immunoglobulin or with FITC-conjugated goat anti-human IgCγ serum (both from Tago, Burlingame, Calif.). When binding of both mAbs and Ig fusion proteins were measured in the same experiment, FITC-conjugated anti-mouse and anti-human second step reagents were mixed together before use. Fluorescence on a total of 10,000 cells was then analyzed by FACS^R.
Binding was detected by FACS^R following addition of FITC-conjugated goat anti-human Ig second step reagents. A total of 10,000 stained cells were analyzed by FACS^R.

CD5Ig [4] = target: T1, CD5Ig; assay: indirect immunofluorescence, FACS, transfected COS cells, FITC anti-mouse and anti-human Ig second step
Method: Immunostaining and FACS^R Analysis. Prior to staining, COS or CHO cells were removed from their culture vessels by incubation in PBS containing 10 mM EDTA. Cells were first incubated with mAbs or Ig fusion proteins at 10 micro grams/ml in DMEM containing 10% FBS for 1–2 hr at 4 degrees C. Cells were then washed, and incubated for an additional 0.5–2 hrs at 4 degrees C. with FITC-conjugated goat anti-mouse immunoglobulin or with FITC-conjugated goat anti-human IgCγ serum (both from Tago, Burlingame, Calif.). When binding of both mAbs and Ig fusion proteins were measured in the same experiment, FITC-conjugated anti-mouse and anti-human second step reagents were mixed together before use. Fluorescence on a total of 10,000 cells was then analyzed by FACS^R.
Cells were then washed and binding was detected by a mixture of FITC-conjugated goat anti-mouse Ig and FITC-conjugated goat anti-human Ig second step reagents. Transfected cells were tested for expression of the appropriate cell surface markers by indirect immunostaining and fluorescence was measured using FACS^R analysis as described above.

% B7 binding activity [1] [%] | Binder | other results
20 | B1 | –
2 | B2 | % of wild type binding [2]: ~2%
27 | B3 | –
16 | B4 | fold less binding than wild type CTLA4Ig [2]: ~5 fold; increase in binding relative to CD28Ig [2]: ~2.5 orders of magnitude
– | B5 | binding result (CD5Ig [3]): no binding (tested: 10 µg/ml (from the text))
< 0.1 | B6 | –
– | B7 | binding result (CD5Ig [4]): no binding (tested: 10 µg/ml (from the text))
< 0.1 | B8 | –
